Measurements published in the supplement of paper PMC5998384.

How the values were obtained:
[1] = system: HeLa Kyoto; assay: melting temperature (median over replicates), in situ; higher = more thermally stable
[2] = system: HeLa Kyoto; assay: solubility in G1/S (NP-40 vs SDS abundance) (log2 ratio); higher = more soluble; conditions: cell cycle stage: G1/S
[3] = system: HeLa Kyoto; assay: thermal stability score vs G1/S (z-score of summed log2 fold changes over temperatures); higher = more thermally stable than in G1/S
[4] = system: HeLa Kyoto; assay: solubility change mitosis vs G1/S (difference of NP-40 vs SDS log2 ratios) (log2 ratio difference); higher = more soluble in mitosis
[5] = cell cycle stage: early G1 (4.5 h after nocodazole release)
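Wherever melting temperature (median over replicates), in situ is given: HeLa Kyoto cells synchronized by double thymidine or nocodazole block, proteins quantified by TMT10plex mass spectrometry, three independent biological replicates.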
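Wherever solubility change mitosis vs G1/S (difference of NP-40 vs SDS log2 ratios) is given: synchronized HeLa Kyoto cells (double thymidine block for G1/S, nocodazole release for mitosis), protein amounts in NP-40 versus SDS lysates quantified by mass spectrometry, three biological replicates.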
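Wherever solubility in G1/S (NP-40 vs SDS abundance) is given: HeLa Kyoto cells arrested at G1/S by double thymidine block, proteins quantified by TMT10plex mass spectrometry in mild NP-40 versus SDS extracts, three biological replicates.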
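Wherever thermal stability score vs G1/S (z-score of summed log2 fold changes over temperatures) is given: synchronized HeLa Kyoto cells, proteins quantified by TMT10plex mass spectrometry, three biological replicates, mitosis taken 0.5 h after nocodazole release, G1/S directly after double thymidine block.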

In the case of “MATLLSHPQQRPPFLRQAIKIRRRRVRDLQDPPPQMAPEIQPPSHHFSPEQRALLYEDALYTVLHRLGHPEPNHVTEASELLRYLQEAFHVEPEEHQQTLQRVRELEKPIFCLKATVKQAKGILGKDVSGFSDPYCLLGIEQGVGVPGGSPGSRHRQKAVVRHTIPEEETHRTQVITQTLNPVWDETFILEFEDITNASFHLDMWDLDTVESVRQKLGELTDLHGLRRIFKEARKDKGQDDFLGNVVLRLQDLRCREDQWYPLEPRTETYPDRGQCHLQFQLIHKRRATSASRSQPSYTVHLHLLQQLVSHEVTQHEAGSTSWDGSLSPQAATVLFLHATQKDLSDFHQSMAQWLAYSRLYQSLEFPSSCLLHPITSIEYQWIQGRLKAEQQEELAASFSSLLTYGLSLIRRFRSVFPLSVSDSPARLQSLLRVLVQMCKMKAFGELCPNTAPLPQLVTEALQTGTTEWFHLKQQHHQPMVQGIPEAGKALLGLVQDVIGDLHQCQRTWDKIFHNTLKIHLFSMAFRELQWLVAKRVQDHTTVVGDVVSPEMGESLFQLYISLKELCQLRMSSSERDGVLALDNFHRWFQPAIPSWLQKTYNEALARVQRAVQMDELVPLGELTKHSTSAVDLSTCFAQISHTARQLDWPDPEEAFMITVKFVEDTCRLALVYCSLIKARARELSSGQKDQGQAANMLCVVVNDMEQLRLVIGKLPAQLAWEALEQRVGAVLEQGQLQNTLHAQLQSALAGLGHEIRTGVRTLAEQLEVGIAKHIQKLVGVRESVLPEDAILPLMKFLEVELCYMNTNLVQENFSSLLTLLWTHTLTVLVEAAASQRSSSLASNRLKIALQNLEICFHAEGCGLPPKALHTATFQALQRDLELQAASSRELIRKYFCSRIQQQAETTSEELGAVTVKASYRASEQKLRVELLSASSLLPLDSNGSSDPFVQLTLEPRHEFPELAARETQKHKKDLHPLFDETFEFLVPAEPCRKAGACLLLTVLDYDTLGADDLEGEAFLPLREVPGLSGSEEPGEVPQTRLPLTYPAPNGDPILQLLEGRKGDREAQVFVRLRRHRAKQASQHALRPAP [UNC13D]”, the melting temperature ([1]; cell cycle stage: G1/S) is reported as 51.5 °C, the melting temperature ([1]; cell cycle stage: mitosis) is reported as 51.4 °C and the “solubility in G1/S (log2)” value [2] is reported as -0.0281. The thermal stability score [3, 5] was -0.00435, the thermal stability score ([3]; cell cycle stage: mitosis) was 0.185 and the “solubility change mitosis (log2)” value [4] was -0.0257.

“MSWGTELWDQFDNLEKHTQWGIDILEKYIKFVKERTEIELSYAKQLRNLSKKYQPKKNSKEEEEYKYTSCKAFISNLNEMNDYAGQHEVISENMASQIIVDLARYVQELKQERKSNFHDGRKAQQHIETCWKQLESSKRRFERDCKEADRAQQYFEKMDADINVTKADVEKARQQAQIRHQMAEDSKADYSSILQKFNHEQHEYYHTHIPNIFQKIQEMEERRIVRMGESMKTYAEVDRQVIPIIGKCLDGIVKAAESIDQKNDSQLVIEAYKSGFEPPGDIEFEDYTQPMKRTVSDNSLSNSRGEGKPDLKFGGKSKGKLWPFIKKNKLMSLLTSPHQPPPPPPASASPSAVPNGPQSPKQQKEPLSHRFNEFMTSKPKIHCFRSLKRGLSLKLGATPEDFSNLPPEQRRKKLQQKVDELNKEIQKEMDQRDAITKMKDVYLKNPQMGDPASLDHKLAEVSQNIEKLRVETQKFEAWLAEVEGRLPARSEQARRQSGLYDSQNPPTVNNCAQDRESPDGSYTEEQSQESEMKVLATDFDDEFDDEEPLPAIGTCKALYTFEGQNEGTISVVEGETLYVIEEDKGDGWTRIRRNEDEEGYVPTSYVEVCLDKNAKDS [FNBP1]” was tested, and the melting temperature ([1]; cell cycle stage: G1/S) was 49.7 °C, the melting temperature ([1]; cell cycle stage: mitosis) was 49.4 °C and the “solubility in G1/S (log2)” value [2] was 0.298. For the same sequence, the thermal stability score [3, 5] was 0.62, the thermal stability score ([3]; cell cycle stage: mitosis) was 0.929 and the “solubility change mitosis (log2)” value [4] was -0.129.

With “MADTDLFMECEEEELEPWQKISDVIEDSVVEDYNSVDKTTTVSVSQQPVSAPVPIAAHASVAGHLSTSTTVSSSGAQNSDSTKKTLVTLIANNNAGNPLVQQGGQPLILTQNPAPGLGTMVTQPVLRPVQVMQNANHVTSSPVASQPIFITTQGFPVRNVRPVQNAMNQVGIVLNVQQGQTVRPITLVPAPGTQFVKPTVGVPQVFSQMTPVRPGSTMPVRPTTNTFTTVIPATLTIRSTVPQSQSQQTKSTPSTSTTPTATQPTSLGQLAVQSPGQSNQTTNPKLAPSFPSPPAVSIASFVTVKRPGVTGENSNEVAKLVNTLNTIPSLGQSPGPVVVSNNSSAHGSQRTSGPESSMKVTSSIPVFDLQDGGRKICPRCNAQFRVTEALRGHMCYCCPEMVEYQKKGKSLDSEPSVPSAAKPPSPEKTAPVASTPSSTPIPALSPPTKVPEPNENVGDAVQTKLIMLVDDFYYGRDGGKVAQLTNFPKVATSFRCPHCTKRLKNNIRFMNHMKHHVELDQQNGEVDGHTICQHCYRQFSTPFQLQCHLENVHSPYESTTKCKICEWAFESEPLFLQHMKDTHKPGEMPYVCQVCQYRSSLYSEVDVHFRMIHEDTRHLLCPYCLKVFKNGNAFQQHYMRHQKRNVYHCNKCRLQFLFAKDKIEHKLQHHKTFRKPKQLEGLKPGTKVTIRASRGQPRTVPVSSNDTPPSALQEAAPLTSSMDPLPVFLYPPVQRSIQKRAVRKMSVMGRQTCLECSFEIPDFPNHFPTYVHCSLCRYSTCCSRAYANHMINNHVPRKSPKYLALFKNSVSGIKLACTSCTFVTSVGDAMAKHLVFNPSHRSSSILPRGLTWIAHSRHGQTRDRVHDRNVKNMYPPPSFPTNKAATVKSAGATPAEPEELLTPLAPALPSPASTATPPPTPTHPQALALPPLATEGAECLNVDDQDEGSPVTQEPELASGGGGSGGVGKKEQLSVKKLRVVLFALCCNTEQAAEHFRNPQRRIRRWLRRFQASQGENLEGKYLSFEAEEKLAEWVLTQREQQLPVNEETLFQKATKIGRSLEGGFKISYEWAVRFMLRHHLTPHARRAVAHTLPKDVAENAGLFIDFVQRQIHNQDLPLSMIVAIDEISLFLDTEVLSSDDRKENALQTVGTGEPWCDVVLAILADGTVLPTLVFYRGQMDQPANMPDSILLEAKESGYSDDEIMELWSTRVWQKHTACQRSKGMLVMDCHRTHLSEEVLAMLSASSTLPAVVPAGCSSKIQPLDVCIKRTVKNFLHKKWKEQAREMADTACDSDVLLQLVLVWLGEVLGVIGDCPELVQRSFLVASVLPGPDGNINSPTRNADMQEELIASLEEQLKLSGEHSESSTPRPRSSPEETIEPESLHQLFEGESETESFYGFEEADLDLMEI [POGZ]” the melting temperature ([1]; cell cycle stage: mitosis) was 49.5 °C, the “solubility in G1/S (log2)” value [2] was -0.704 and the thermal stability score [3, 5] was 1.1. The thermal stability score ([3]; cell cycle stage: mitosis) was 2.58 and the “solubility change mitosis (log2)” value [4] was 0.341.

“MPHRKKKPFIEKKKAVSFHLVHRSQRDPLAADESAPQRVLLPTQKIDNEERRAEQRKYGVFFDDDYDYLQHLKEPSGPSELIPSSTFSAHNRREEKEETLVIPSTGIKLPSSVFASEFEEDVGLLNKAAPVSGPRLDFDPDIVAALDDDFDFDDPDNLLEDDFILQANKATGEEEGMDIQKSENEDDSEWEDVDDEKGDSNDDYDSAGLLSDEDCMSVPGKTHRAIADHLFWSEETKSRFTEYSMTSSVMRRNEQLTLHDERFEKFYEQYDDDEIGALDNAELEGSIQVDSNRLQEVLNDYYKEKAENCVKLNTLEPLEDQDLPMNELDESEEEEMITVVLEEAKEKWDCESICSTYSNLYNHPQLIKYQPKPKQIRISSKTGIPLNVLPKKGLTAKQTERIQMINGSDLPKVSTQPRSKNESKEDKRARKQAIKEERKERRVEKKANKLAFKLEKRRQEKELLNLKKNVEGLKL [LTV1]” was tested, and the melting temperature ([1]; cell cycle stage: G1/S) was 50.1 °C, the melting temperature ([1]; cell cycle stage: mitosis) was 48.8 °C and the “solubility in G1/S (log2)” value [2] was -0.271. For the same sequence, the thermal stability score [3, 5] was -2.27, the thermal stability score ([3]; cell cycle stage: mitosis) was -0.672 and the “solubility change mitosis (log2)” value [4] was -0.0961.

In the case of “MAALMTPGTGAPPAPGDFSGEGSQGLPDPSPEPKQLPELIRMKRDGGRLSEADIRGFVAAVVNGSAQGAQIGAMLMAIRLRGMDLEETSVLTQALAQSGQQLEWPEAWRQQLVDKHSTGGVGDKVSLVLAPALAACGCKVPMISGRGLGHTGGTLDKLESIPGFNVIQSPEQMQVLLDQAGCCIVGQSEQLVPADGILYAARDVTATVDSLPLITASILSKKLVEGLSALVVDVKFGGAAVFPNQEQARELAKTLVGVGASLGLRVAAALTAMDKPLGRCVGHALEVEEALLCMDGAGPPDLRDLVTTLGGALLWLSGHAGTQAQGAARVAAALDDGSALGRFERMLAAQGVDPGLARALCSGSPAERRQLLPRAREQEELLAPADGTVELVRALPLALVLHELGAGRSRAGEPLRLGVGAELLVDVGQRLRRGTPWLRVHRDGPALSGPQSRALQEALVLSDRAPFAAPSPFAELVLPPQQ [TYMP]”, the melting temperature ([1]; cell cycle stage: G1/S) is reported as 55.7 °C, the melting temperature ([1]; cell cycle stage: mitosis) is reported as 57.5 °C and the “solubility in G1/S (log2)” value [2] is reported as 0.479. For the same sequence, the thermal stability score [3, 5] was -1.38, the thermal stability score ([3]; cell cycle stage: mitosis) was -0.967 and the “solubility change mitosis (log2)” value [4] was -0.0175.

“MSVVGIDLGFQSCYVAVARAGGIETIANEYSDRCTPACISFGPKNRSIGAAAKSQVISNAKNTVQGFKRFHGRAFSDPFVEAEKSNLAYDIVQLPTGLTGIKVTYMEEERNFTTEQVTAMLLSKLKETAESVLKKPVVDCVVSVPCFYTDAERRSVMDATQIAGLNCLRLMNETTAVALAYGIYKQDLPALEEKPRNVVFVDMGHSAYQVSVCAFNRGKLKVLATAFDTTLGGRKFDEVLVNHFCEEFGKKYKLDIKSKIRALLRLSQECEKLKKLMSANASDLPLSIECFMNDVDVSGTMNRGKFLEMCNDLLARVEPPLRSVLEQTKLKKEDIYAVEIVGGATRIPAVKEKISKFFGKELSTTLNADEAVTRGCALQCAILSPAFKVREFSITDVVPYPISLRWNSPAEEGSSDCEVFSKNHAAPFSKVLTFYRKEPFTLEAYYSSPQDLPYPDPAIAQFSVQKVTPQSDGSSSKVKVKVRVNVHGIFSVSSASLVEVHKSEENEEPMETDQNAKEEEKMQVDQEEPHVEEQQQQTPAENKAESEEMETSQAGSKDKKMDQPPQAKKAKVKTSTVDLPIENQLLWQIDREMLNLYIENEGKMIMQDKLEKERNDAKNAVEEYVYEMRDKLSGEYEKFVSEDDRNSFTLKLEDTENWLYEDGEDQPKQVYVDKLAELKNLGQPIKIRFQESEERPKLFEELGKQIQQYMKIISSFKNKEDQYDHLDAADMTKVEKSTNEAMEWMNNKLNLQNKQSLTMDPVVKSKEIEAKIKELTSTCSPIISKPKPKVEPPKEEQKNAEQNGPVDGQGDNPGPQAAEQGTDTAVPSDSDKKLPEMDID [HSPA4]” was tested, and the melting temperature ([1]; cell cycle stage: G1/S) was 51.3 °C, the melting temperature ([1]; cell cycle stage: mitosis) was 51.1 °C and the “solubility in G1/S (log2)” value [2] was 0.198. For the same sequence, the thermal stability score [3, 5] was 0.436, the thermal stability score ([3]; cell cycle stage: mitosis) was 1.85 and the “solubility change mitosis (log2)” value [4] was -0.0794.

With “MSKLKSSESVRVVVRCRPMNGKEKAASYDKVVDVDVKLGQVSVKNPKGTAHEMPKTFTFDAVYDWNAKQFELYDETFRPLVDSVLQGFNGTIFAYGQTGTGKTYTMEGIRGDPEKRGVIPNSFDHIFTHISRSQNQQYLVRASYLEIYQEEIRDLLSKDQTKRLELKERPDTGVYVKDLSSFVTKSVKEIEHVMNVGNQNRSVGATNMNEHSSRSHAIFVITIECSEVGLDGENHIRVGKLNLVDLAGSERQAKTGAQGERLKEATKINLSLSALGNVISALVDGKSTHIPYRDSKLTRLLQDSLGGNAKTVMVANVGPASYNVEETLTTLRYANRAKNIKNKPRVNEDPKDALLREFQEEIARLKAQLEKRSIGRRKRREKRREGGGSGGGGEEEEEEGEEGEEEGDDKDDYWREQQEKLEIEKRAIVEDHSLVAEEKMRLLKEKEKKMEDLRREKDAAEMLGAKIKAMESKLLVGGKNIVDHTNEQQKILEQKRQEIAEQKRREREIQQQMESRDEETLELKETYSSLQQEVDIKTKKLKKLFSKLQAVKAEIHDLQEEHIKERQELEQTQNELTRELKLKHLIIENFIPLEEKSKIMNRAFFDEEEDHWKLHPITRLENQQMMKRPVSAVGYKRPLSQHARMSMMIRPEARYRAENIVLLELDMPSRTTRDYEGPAIAPKVQAALDAALQDEDEIQVDASSFESTANKKSKARPKSGRKSGSSSSSSGTPASQLYPQSRGLVPK [KIF3B]” the melting temperature ([1]; cell cycle stage: G1/S) was 50.3 °C, the melting temperature ([1]; cell cycle stage: mitosis) was 50.3 °C and the “solubility in G1/S (log2)” value [2] was 0.0133. The thermal stability score [3, 5] was 0.792, the thermal stability score ([3]; cell cycle stage: mitosis) was 0.328 and the “solubility change mitosis (log2)” value [4] was -0.0759.
